Experiment: soluble on expression in E. coli; label from the status in PepcDB or PDB records

Sequence | soluble on expression in E. coli
MGSDKIHHHHHHMDYRKIIKEIGRGKNHARDLDLDTARGLYTRMLNGDVPDLEMGSILMALRIKGEGEAEMLGFYEAMQNHTIKLTPPADRPLPVVIPSYNGARKQANLTPLLAILLHKLGFPVVVHGVSEDPTRVLTETIFELMGIIPTLHGGQAQAKLDGRQPVFIPVSALCPPLEKQLAMRWRMGVRNSAHSLAKLATPFAEDAALRLSSVSHPEYVPRVATFFSRIGGRALLMHGTEGEVYANPQRCPQISLIDSRGVQVLHERQSDTYDEPLSLPATKDPEITARWIERCLAGHEPVPQSLKTQMACCLVATGEAATLEDGLARVEQAFSE | not soluble
MGSDKIHHHHHHMNNIIATGFNTASTDGELDSLERELRRLEAIGVDTVELALSSLDLIAGGRIVKERGDRLRTLLETFSFRYTVHGLVSSNFMDPATRRHQVDAAKALVEICDSIDARVLVQHAGFLRADQIAQRAGADERQCEALLELGEHAKAYGIRIAFENIFTTEPGQYRQTPAEVAATVKAVNHPDVVALIDFSHAYLESNYRGLDFRDQLRAMAPVLGAPGRRLSRRTATTRIVVITDGGMECSTGWTS | not soluble
MKPAKVSLLRRLLHSLKHVDCNIAKRFPSTIKIVKLLMIFMVFTPISSIYAEDVYQNFEELKNNEDPSDYGVVTKETGSPVLVLAIHGGGIEGGTSEVARELSKEYSMYLFEGLKSAGNSVLHITSTHFDEPRALKMTGNHEYVISLHGYAEEDQQIEVGGTDRVRAADLVEKLQHAGFPAVLLNMDHPHAGVSPNNIANKSKTGLSIQIEMSTGFRKSLFGIFSLKSRAVTQNERFYEFTEVMFRFLKNSYLEHHHHHH | not soluble
MAKVIRNRWVYRTDNKWTRYLPRRNDAVKEFDYDKNGASLKHYTEEISEEMRPKQASKLWMAWLYRDTSAEPKWTKKHVENLFGADFKVGRMEVFRNTELINTELWKIKHLIELRPVEFKNGVEPTEDDIFSTSLAPNGQCEVIQGGHVASENDLKLADGKQWTRKELGRDLNKKYHLYQSVYEQNVHTPNNITVVK | not soluble
MNSRQQTILQMVIDQGQVSVTDLAKATGVSEVTIRQDLNTLEKLSYLRRAHGFAVSLDSDDVETRMMSNYTLKRELAEFAASLVQPGETIFIENGSSNALLARTLGEQKKNVTIITVSSYIAHLLKDAPCEVILLGGVYQKKSESMVGPLTRQCIQQVHFSKAFIGIDGWQPETGFTGRDMMRTDVVNAVLEKECEAIVLTDSSKFGAVHSYSIGPVERFNRVITDSKIRASDLMHLEHSKLTIHVVDI | not soluble
MASSNLIKQLQERGLVAQVTDEEALAERLAQGPIALYCGFDPTADSLHLGHLVPLLCLKRFQQAGHKPVALVGGATGLIGDPSFKAAERKLNTEETVQEWVDKIRKQVAPFLDFDCGENSAIAANNYDWFGNMNVLTFLRDIGKHFSVNQMINKEAVKQRLNREDQGISFTEFSYNLLQGYDFACLNKQYGVVLQIGGSDQWGNITSGIDLTRRLHQNQVFGLTVPLITKADGTKFGKTEGGAVWLDPKKTSPYKFYQFWINTADADVYRFLKFFTFMSIEEINALEEEDKNSGKAPRAQYVLAEQVTRLVHGEEGLQAAKRITECLFSGSLSALSEADFEQLAQDGVPMVEMEKGADLMQALVDSELQPSRGQARKTIASNAITINGEKQSDPEYFFKEEDRLFGRFTLLRRGKKNYCLICWK | soluble
MGAGASAEEKHSRELEKKLKEDAEKDARTVKLLLLGAGESGKSTIVKQMKIIHQDGYSLEECLEFIAIIYGNTLQSILAIVRAMTTLNIQYGDSARQDDARKLMHMADTIEEGTMPKEMSDIIQRLWKDSGIQACFDRASEYQLNDSAGYYLSDLERLVTPGYVPTEQDVLRSRVKTTGIIETQFSFKDLNFRMFDVGGQRSERKKWIHCFEGVTAIIFCVALSDYDLVLAEDEEMNRMHESMKLFDSICNNKWFTDTSIILFLNKKDLFEEKIKKSPLTICYPEYAGSNTYEEAGNYIKVQFLELNMRRDVKEIYSHMTCATDTQNVKFVFDAVTDIIIKENLKDCGLF | soluble
MSLEKKTLLTHCPDAPGLISKITNICYKHQLNIIHNNEFVDNASGHFFMRTELEGYFNDATLLADLDHALPQGTRRKLISSSRKRIVILVTKEAHCLGDILMKNYDGSLDVDIAAVVGNYDTLQRLTERFDIPYHCVSHEGLSREAHEQALLDVIDQYQPDYLVLAKYMRVLTPAFVERFHHKIINIHHSFLPAFIGAKPYQQAYERGVKIIGATAHFVTNDLDEGPIIKQDVIPVDHTFSAQDMAQAGRDVEKNVLSKALNKVLNDHVFVYGNKTVILERHHHHHH | soluble
MGSDKIHHHHHHMQSRMHPRYYLSLEIFEREQKKIFRKAWLFAGLKTLLSEHNAFITRRIAGIPIVIQNFHGELRAFENVCLHRNALLQTEAVGKRPLVCAYHAWRYDAEGRVDHIPECDAVYRFSAEEKQGLKLRRFALHAVGNVLFINLDTDPLPFEEQFTPAFIDLLESSSNTYDTEVMVTTWHGKFNWKLAYENLRDANHPRFVHPKSLAKTVKFTPTVDEALFRESGLQLTDTSPSALRREMRRFSHAGADAPIPDLQHFGWHELVERWGDQDSYYNWLAFPNLHIASANGGFSFTLEHHIPIAPDRTDLEIYWFTARKKQAYAFSHQVLLAQMHGSKLVVGEDVEIMEQVQAALHADAPLPNQGAYESSNRLVERWYTTLMDGDHDI | not soluble
MTGSVVVAGLGPGAQELITPEVSAALALATDIVGYAPYVARVAERDGLQRHASDNREELDRAGFALRLATEGRHVVIVSSGDPGVFAMAAALFEAIEAGDPSWRELDIRVLPGIS | not soluble
SLIKQKLKISQNLNSIQIQTIKILSLNQKELTKLILEESENNECLEINSNKIFFETLKTYRFKKVFYKEDDMIKNQHDIALEKTQTNTSLKEHLLLQLRIQRINEDEIKIGEILINNLNSKGFHIINPYDLFKKEEKEKVKKIIELIQKFDPIGICVPNIIESLILQAKHHKLETNIIKILEKAELLEKTQKKLKEELKIRSKEFNTALEIIRQKLNPNPTLEFKDPNDTNFYVDPDILIINHNNKFKIKIKEVNIFKKELKRTSENPQKQKKAKWLIESLRYRDEILAKIGIAIYTLQKEFLRRGFKSLRPMNLSILSEKISVSKSTISRAIKNKYLKCEWGTILIKELFSSVGGAKTNEFSKLSIKITVKKLLEANKKMSDKEISVILKSKGISISRRTVNKYRNELKSEKGRTYYGT | not soluble
MTKVERLLINYKTLEEFKKFKEYGIQELSMLEELQDNIIENDSTSPFYGIYFGDKLVARMSLYQVNGKSNPYFDNRQDYLELWKLEVLPGYQNRGYGRALVEFAKSFKMPIRTNPRMKSAEFWNKMNFKTVKYDMARDKGEDPLIWHPDMDREMTPGESA | soluble
MAHHHHHHMQDEAVRAALQSGVWREKKDPKSGKTYYVNVQTRVSVWNLAKELARLQQQQKFTEEMELRKQKKLRSLAEERQAQAKKWQEEEEALMQRMAELEREKARLESEITILQGPTEVEAASLQEEQSRLLDAKQSLELIVSEELRKRRESAAELQQLQARLEALRQERQEELGMFESLRKRLEQLRQEHAEALADLQREEAVEESLREELQREERQLEDALHEEVRLKELLKMREDEVDRMKAELKAVCQRKAELQQQHQRLLEEVAESAMGAAEDTLQEPPPSSSLLLSHLQREVANRKKSLRHLMQQQRLAKEAEWMEAESAELRRFTALAEREAQRLAQFSRELSDQVRAVTPLLEAVKHDVQQLEEEMEELR | soluble
MVVSIIPQFPDIKVSLALFEQVKNAKEIRSKMSELSTSFAFIDPRLVCSGEQMYSAIYKTLIEVKYNKMRTRNLNSECVLCLSPTSNISDAFLKFGIKDDSSQLICLKFHTNTDDVDKEQLRTIMTSIVKGQEIEFNDDNLSRFYDEALIRKVCFNNKFEVKTSTASPETHCTNFTFVFLLFCFYLLDL | not soluble
NSSKCYIQVTGMTCASCVANIERNLRREEGIYSILVALMAGKAEVRYNPAVIQPPMIAEFIRELGFGATVIENIEGR | soluble
MEFKNPGFTGLFVIGRKYFMTAENTEMTLHPKKLPPNAGKGRVKGVPNKTTSLLKESVIEAAKRAGSKYGKEGLISYLEKQALKCPAAYLALLGKVLPLQVTGEDGGAIKMIGRVEIAPLGHDNTTD | not soluble
MTKTRRRGAELENAIYQAARDILNQDGLEQLTFANVAEQAGTSKPVIYRRWRSPLELAIAAIQDQIITENHGQLDEVSLTGQTLSEDLFQVLKRFTVSINTFNQALVITWFHHLDQQANPEVKDLLNAVKKIDAHAIERVCQRAQQRGELRTGTLSCDLQLMPFDWLRYRAFANEPITDATLHLLVDDLLVPAYQHALG | not soluble
GDTHEFHKLLIKVVDLFLEDRIKEFEMKLNTTLDELEFEELIGKPDSSNSAENNGIFIDEYSYDASENAMKKLFVEYVRQPEFKYTVLSIKGVNDWVRE | soluble
MGSDKIHHHHHHMLNVSIVIPAWNEQERINDCLLNATRQTVMPHEVIVVDNRSTDSTVAVVEQFMKDHPEAPVKLLHQDDEQGLIPTRDYGLNHATGDILGRFDADCMIRPDWVEVVSGIFTEDPDAMGATGPVMYYDLPSRHFGLRGDNSTRKRIYRADDGQPLLFGSNMALRATAWREIADEVCQDKADVMHEDIDISLHLLGKDLKTVYCPRMIAGISARRMDTSPASFLNYMRRFKNTFNAHPQHYRKHKPEILITALYPVMHLLYPVWQKVLNTADINPAEAAWINEQMELAEQEGHELYDDTPTDEEWSEKHEE | not soluble
MVDVIALGEPLIQFNSFNPGPLRFVNYFEKHVAGSELNFCIAVVRNHLSCSLIARVGNDEFGKNIIEYSRAQGIDTSHIKVDNESFTGIYFIQRGYPIPMKSELVYYRKGSAGSRLSPEDINENYVRNSRLVHSTGITLAISDNAKEAVIKAFELAKSRSLDTNIRPKLWSSLEKAKETILSILKKYDIEVLITDPDDTKILLDVTDPDEAYRKYKELGVKVLLYKLGSKGAIAYKDNVKAFKDAYKVPVEDPTGAGDAMAGTFVSLYLQGKDIEYSLAHGIAASTLVITVRGDNELTPTLEDAERFLNEFKT | soluble
MSLALQEQCLWETLTPQRPDRAPLKGELTADVCIIGAGFTGLSAAVHLLEQGKRVCVVEAHRAGHGGSGRNVGLVNAGMWIPPDEIEAGFGEQVGSQLNRMLGAAPSLVFSLVDKYHIDCQLRREGTLHMAHNARGEADLRSREEQWKRRGAPVELLTGAACEAATGTRKIAAALLDRRAGTLNPMAYVSGLARAATELGGRLFDHSPVTRLERQGQRWSVQTEQGSVLAEQVVIASNAYTEGDWTELRRNFFPGYYYQVASAPLTEEAARQILPGGQGSWDTRQVLSSIRRDAEGRLLLGSLGNGSQKPLWFLKAWADRVQQHYFPYLKPVEWECTWTGCIAFTPDHLMRLFEPAPGLVAVTGYNGRGVTTGTVVGKAFADYLCNGDPQALPIPFAAMQPLAGVGLRSCLYEAGFSLYHAGQCLRIVEGHHHHHH | not soluble
MSLGYGIRLLVWGEFACFTRPEMKVERVSYDVMTPSAARGILESIHWKPSIVWKIDKIHVLNEIRFDNVRRNEVGSKIPTGNVRKAMKGEPTLLCQYASEDRQQRATLLLRNVAYVIVAHFEMTSKAGPQDSPEKHYAIFSRRARQGQCFQQPYFGCREFPAKFRLIEEDEPTPHSLHKGDKDLGWMLLDIDHEDGMNPRFFRATMKDGLIEVPPMERGLTVLEGHHHHHH | soluble
MTLTRKTLFLLTAAFGTHSLQTASADAVVKAEKLHASANRSYKVAGKRYTPKNQVAEFTQTGNASWYGGRFHGRKTSGGERYDMNAFTAAHKTLPIPSYVRVTNTKNGKSVIVRVNDRGPFHGNRIIDVSKAAAQKLGFVNQGTAHVKIEQIVPGQSAPVAENKDIFIDLKSFGTEHEAQAYLNQAAQNFAVSSSGTNLSVEKRRYEYVVKMGPFTSQERAAEAEAQARGMVRAVLTAG | not soluble
GPLGSEWYYGNVTRHQAECALNERGVEGDFLIRDSESSPSDFSVSLKASGKNKHFKVQLVDNVYCIGQRRFHTMDELVEHYKKAPIFTSEHGEKLYLVRALQ | soluble

Source: the DeepSol protein solubility set
